According to US20080050380A1:
pKd: −log10 of the molar value.

Key:
[1] = target: human TANGO 268 (glycoprotein VI, GPVI), full length (human) (UniProt Q9HCN6); test: flow cytometry on washed human platelets
[2] = target: baboon GPVI on baboon platelets (baboon); test: flow cytometry on washed baboon platelets
[3] = target: soluble human GPVI-Fc (the extracellular domain of GPVI fused to Fc) (human) (UniProt Q9HCN6); test: SPR (BIAcore), GPVI-Fc coupled to the chip, bivalent model
[4] = target: soluble human GPVI-Fc (the extracellular domain of GPVI fused to Fc) (human) (UniProt Q9HCN6); test: ELISA, 5 nM GPVI-Fc with 10 µg/ml antibody on collagen-coated wells; collagen is the blocked partner
[5] = target: soluble human GPVI-Fc (the extracellular domain of GPVI fused to Fc) (human) (UniProt Q9HCN6); test: 125I-convulxin binding to GPVI-Fc captured on mAb 1P10.2, 10 µg/ml antibody; convulxin is the blocked partner
[6] = target: collagen type I; test: cell-based or functional assay

Sequence of soluble human GPVI-Fc (the extracellular domain of GPVI fused to Fc) (human) (Q9HCN6 other isoform, or with tags, fused parts or gaps): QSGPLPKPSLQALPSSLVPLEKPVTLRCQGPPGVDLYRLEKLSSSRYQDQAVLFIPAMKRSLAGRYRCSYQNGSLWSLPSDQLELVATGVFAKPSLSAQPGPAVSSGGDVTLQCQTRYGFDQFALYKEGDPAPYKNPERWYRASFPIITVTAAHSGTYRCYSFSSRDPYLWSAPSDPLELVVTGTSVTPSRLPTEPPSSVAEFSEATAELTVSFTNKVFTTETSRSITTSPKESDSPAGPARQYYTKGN
Sequence of human TANGO 268 (glycoprotein VI, GPVI), full length (human) (Q9HCN6 other isoform, or with tags, fused parts or gaps): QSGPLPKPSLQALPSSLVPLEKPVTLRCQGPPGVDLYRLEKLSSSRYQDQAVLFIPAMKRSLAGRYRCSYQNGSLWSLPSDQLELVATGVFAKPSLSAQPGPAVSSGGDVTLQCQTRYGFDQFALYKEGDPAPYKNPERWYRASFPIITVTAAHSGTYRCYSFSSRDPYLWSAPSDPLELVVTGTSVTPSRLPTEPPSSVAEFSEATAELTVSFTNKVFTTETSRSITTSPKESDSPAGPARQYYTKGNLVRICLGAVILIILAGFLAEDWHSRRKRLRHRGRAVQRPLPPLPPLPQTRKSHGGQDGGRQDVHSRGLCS

For “mouse monoclonal antibody produced by hybridoma cell line 9012.2”, the Human fluorescence intensity [1] was 14, the Human platelets % positive [1] was 21% and the Baboon fluorescence intensity [2] was 18. It also gave a Baboon platelets % positive [2] of 33.8%, a pKd [3] of 7.74 and a % of Inhibition of collagen binding of hrGPVI [4] of 58%. The % of Inhibition of convulxin binding of hrGPVI [5] was 75%.

In the case of “recombinant human soluble GPVI:Fc fusion protein (rhusGPVI:Fc) (from UniProt Q9HCN6 21-269)”, the concentration of rhusGPVI:Fc needed to inhibit collagen-induced activation, against that needed for Cvx [6] was 10 fold.
